{"source": "patent US20060281899A1", "about": "“Mutants of biotin binding protein” (priority 2002, published 2006)", "molecules": {"B1": {"name": "Avd-ccci: Avidin mutant D86C, I106C, I117C with six intermonomeric disulphide bridges (protein, UniProt P02701 25-152, looked up, variant D86C I106C I117C)", "Avidin": "ARKCSLTGKWTNDLGSNMTIGAVNSRGEFTGTYITAVTATSNEIKESPLHGTQNTINKRTQPTFGFTVNWKFSESTTVFTGQCFICRNGKEVLKTMWLLRSSVNDCGDDWKATRVGCNIFTRLRTQKE"}}, "key": {"[1]": {"assay": "IAsys optical biosensor, affinity of avidin and avidin mutants towards 2-iminobiotin", "type": "binding", "description": "(§1) Reversibility of biotin binding was measured for avidin and the mutants with an IAsys optical biosensor (Laitinen, O. H. et al., FEBS Lett 461 (1999), 52-8). Protein samples were allowed to bind to a biotin-aminosilane cuvette in PBS containing 1 M NaCl. After the equilibrium was reached, biotin-containing buffer was added and the dissociation of the proteins was monitored. The affinities of the proteins towards 2-iminobiotin were determined with an IAsys optical biosensor (Marttila, A. T. et al. FEBS Lett 441 (1998), 313-7). Biotin-binding activity of the mutants Avd-ci and Avd-ccci after heat treatment was studied with a microtiter plate assay. Protein samples, 5 μg/ml concentration in PBS, were heated for various time periods at 99.9° C. and then chilled on ice. The samples were transferred to a Nunc Maxisorp-plate and incubated at 37° C. for 2 h. The wells were washed three times with PBS-Tween (0.05% v/v). After that the wells were blocked with PBS containing 1% BSA at 37° C. for 30 minutes and washed again with PBS-Tween. Next, biotinylated alkaline phosphatase (Sigma) in PBS, 1% BSA was added and incubated at 37° C. for one hour. Once again, the wells were washed with PBS-Tween and the PNPP substrate in DEA buffer (1 mg/ml) was applied to the wells. The absorbances at 405 nm were measured after incubation for 45 minutes."}, "[2]": {"system": "biotinylated alkaline phosphatase", "assay": "Microtiter plate assay, biotin-binding activity after heat treatment at 99.9° C.", "type": "physicochemical", "details": "99.9° C. for various time periods", "description": "as §1, with “After that the wells were blocked with PBS containing 1% BSA at 37° C. for 30 minutes and washed again with PBS-Tween. Next, biotinylated alkaline phosphatase (Sigma) in PBS, 1% BSA was added and incubated at 37° C. for one hour. Once again, the wells were washed with PBS-Tween and the PNPP substrate in DEA buffer (1 mg/ml) was applied to the wells.” left out\nBiotin-binding activity of the proteins after heat treatment was studied with a microtiter plate assay (Nordlund, H. R., Laitinen, O. H., Uotila, S. T., Nyholm, T., Hytönen, V. P., Slotte, J. P. & Kulomaa, M. S. (2003) J. Biol. Chem. 278, 2479-2483). […] The absorbencies at 405 nm were measured after incubation for 45 minutes."}, "[3]": {"assay": "Differential scanning calorimetry of the avidin mutants", "type": "physicochemical", "details": "for Tm: DSC, 100 mM Na-phosphate buffer pH 7.4", "description": "In order to study the thermal stability of the purified avidin mutants, they were subjected to analysis by differential scanning calorimetry. A Nano II differential scanning calorimeter (Calorimetric Science Corporation, Provo, Utah) was used. […] The reference cell was filled with the same buffer that the sample proteins were dissolved in (100 mM Na-phosphate buffer pH 7.4). The thermograms were recorded as a function of temperature, between 25 and 130° C. at a temperature scan rate of 55.6° C./h. The baselines were subtracted and the transition midpoints (Tm) of the samples were calculated using proprietary software provided by the instrument manufacturer."}, "[4]": {"details": "2-iminobiotin surface; from Nordlund 2003; read-out: Kd detected from the equilibrium response data; cited from earlier work"}, "[5]": {"details": "cited from earlier work"}, "[6]": {"details": "previously published (Nordlund 2003; Gonzalez 1999)"}}, "note": "Read-outs that look alike come from different tables or passages of the source."}
{"molecule": "B1", "values": [{"measurement": "Kd", "setting": "[1]", "value": 290, "unit": "nM"}, {"measurement": "biotin-binding activity after heat treatment", "setting": "[2]", "value": "remained active, in the sense of binding biotin, longer than the wild-type avidin"}, {"measurement": "ΔTm", "setting": "[3]; + biotin, difference in Tm compared to wt avidin + biotin", "value": 3.8, "unit": "°C"}, {"measurement": "Tm", "setting": "[3]; + biotin (biotin:avidin molar ratio 3:1)", "value": "122.0 ± 0.1", "unit": "°C"}, {"measurement": "Tm", "setting": "[3]; without biotin", "value": "94.7 ± 0.5", "unit": "°C"}, {"measurement": "ΔTm", "setting": "[3]; without biotin, difference in Tm compared to wt avidin", "value": 9.2, "unit": "°C"}, {"measurement": "Kd", "setting": "[4]", "value": 290, "unit": "nM"}, {"measurement": "ΔTm", "setting": "[5]; change in Tm upon biotin addition, previously published values", "value": 27.3, "unit": "°C"}, {"measurement": "DSC Tm (+biotin)", "setting": "[5]; [6]", "value": "122.0 ± 0.1", "unit": "°C"}, {"measurement": "DSC Tm(−biotin)", "setting": "[5]; [6]", "value": "94.7 ± 0.5", "unit": "°C"}]}
